A word on the stoichiometry N: it is the number of molecules, sites or subunits per partner or assembly.

Drawing on paper PMC5449173, this text covers fold increase of bioluminescence with rapamycin against control cells and stoichiometry N for 2 substances.

Assay [1] deals with RPTPσ FC (full-length RPTPσ fused to FKBP-Cluc) (not stated (human or mouse cDNA cloned) | not stated). The assay can be described thus: split reporter (BiFC, NanoBiT); split firefly luciferase; 293T/17 cells co-transfected with RPTPσ FN/FC, 48 h, rapamycin for 4 hr against DMSO control.
Assay [2] addresses RPTPσ (transfected in 293T/17 cells for native PAGE) (not stated (human or mouse cDNA cloned)). In words: native gel or EMSA; lysates (NP-40 buffer) of RPTPσ-transfected 293T/17 cells in Coomassie blue sample buffer, native PAGE, western blot; cells untreated or treated with CSPG for 30 min. On the technique in general: In EMSA bound probe runs differently from free probe, usually more slowly.

On to “RPTPσ FN (full-length RPTPσ fused to FRB-Nluc)”, for which the fold increase of bioluminescence with rapamycin against control cells in assay [1] was determined as 3 fold. As to “RPTPσ (transfected in 293T/17 cells for native PAGE) (receptor)”, the stoichiometry N in assay [2] was 2.
